Where a chain is given by its changes, count along the chain named. One block for each binder: values may come before it.
Key:
[1] = biological target: biotinylated labeled human GPC3 protein (produced in-house) (human, UniProt P51654 25-559, limits assumed, biotinylated (Dojindo, Cat. No. LK03); sites not stated); test: ELISA, biotinylated human GPC3 protein
[2] = biological target: T1, human GPC3 on CHO-K1-human GPC3 cells (CHOK1-hGPC3.2B5) (human, UniProt P51654 25-554); test: FACS, CHOK1-hGPC3.2B5 cells;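 further: flow cytometry of humanized antibodies binding to the cells over one hour in the cold, read as cell mean fluorescence intensity, with EC50 obtained by curve fitting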
T1 construct: whole, on cells
Experimental: The desired cells were expanded to a logarithmic growth phase in a T-75 cell culture flask, the medium was removed by pipetting, and the cells were washed twice with a PBS buffer, and digested with trypsin. Then a complete medium was added to stop the digestion, and the cells were blown into a single cell suspension. After counting, the cells were centrifuged, and the cell pellet was resuspended with an FACS buffer (PBS+2% fetal bovine serum) to 2×10⁶ cells/mL. The cell resuspension solution was added to a 96-well FACS reaction plate at 50 μl/well, and a humanized antibody sample to be tested was added at 50 μl/well for incubation at 4° C. for 1 h. […] After the plate was centrifuged and washed 3 times with a PBS buffer, 100 μl of the resulting solution was assayed and analyzed by FACS (FACS Canto™, purchased from BD Biosciences). Data analysis was performed by software (FlowJo) to obtain the mean fluorescence intensity (MFI) of the cells. Then, analysis was performed by software (GraphPad Prism8), data were fitted, and EC₅₀ values were calculated.

B2: hAb005LH1L1b (antibody, human IgG1, V domains shown)
VH: EVQLVQSGAEVKKPGASVKVSCKASGYTFTDYEMHWVRQAPGQGLEWMGAIDPETGNTAYIQKFKGRVTMTTDKSTSTAYMELRSLRSDDTAVYYCTRFYSYSHWGQGTTVTVSS
VL: DIVMTQTPLSLPVTPGEPASISCRSSQSLVHSNRNTYLHWYLQKPGQSPQLLIYKVSNRFSGVPDRFSGSGSGTDFTLKISRVEAEDVGVYYCSQNTHVPPTFGGGTKVEIK
notes: Humanized F3.54.12; VH H1 + VL L1b; expressed as human IgG1
OD450 at 0.0008 nM [1]: 0.075 OD450
OD450 at 0.004 nM [1]: 0.172 OD450
OD450 at 0.02 nM [1]: 0.45 OD450
OD450 at 0.11 nM [1]: 0.812 OD450
OD450 at 0.53 nM [1]: 1.04 OD450
OD450 at 2.67 nM [1]: 1.16 OD450
OD450 at 13.33 nM [1]: 1.04 OD450
OD450 at 66.66 nM [1]: 1.13 OD450
EC50 [2]: 0.491 nM
Max MFI [2]: 4610 MFI

B5: hAb005LH2L1b (antibody, human IgG1, V domains shown)
VH: B2 VH with M70L
VL: B2 VL
notes: Humanized F3.54.12; VH H2 + VL L1b; expressed as human IgG1
OD450 at 0.0008 nM [1]: 0.074 OD450
OD450 at 0.004 nM [1]: 0.194 OD450
OD450 at 0.02 nM [1]: 0.43 OD450
OD450 at 0.11 nM [1]: 0.856 OD450
OD450 at 0.53 nM [1]: 1.05 OD450
OD450 at 2.67 nM [1]: 1.04 OD450
OD450 at 13.33 nM [1]: 1.07 OD450
OD450 at 66.66 nM [1]: 1.16 OD450
EC50 [2]: 0.54 nM
Max MFI [2]: 4770 MFI

B6: hAb005LH2L1a (antibody, human IgG1, V domains shown)
VH: B2 VH with M70L
VL: B2 VL with N33D, R34G
notes: Humanized F3.54.12; VH H2 + VL L1a; expressed as human IgG1
OD450 at 0.0008 nM [1]: 0.049 OD450
OD450 at 0.004 nM [1]: 0.049 OD450
OD450 at 0.02 nM [1]: 0.053 OD450
OD450 at 0.11 nM [1]: 0.048 OD450
OD450 at 0.53 nM [1]: 0.066 OD450
OD450 at 2.67 nM [1]: 0.148 OD450
OD450 at 13.33 nM [1]: 0.249 OD450
OD450 at 66.66 nM [1]: 0.589 OD450
EC50 [2]: 118 nM
Max MFI [2]: 153 MFI

B7: hAb005LH3L1b (antibody, human IgG1, V domains shown)
VH: B2 VH with M48I, V68A, M70L
VL: B2 VL
notes: Humanized F3.54.12; VH H3 + VL L1b; expressed as human IgG1
OD450 at 0.0008 nM [1]: 0.074 OD450
OD450 at 0.004 nM [1]: 0.169 OD450
OD450 at 0.02 nM [1]: 0.426 OD450
OD450 at 0.11 nM [1]: 0.838 OD450
OD450 at 0.53 nM [1]: 0.952 OD450
OD450 at 2.67 nM [1]: 1.1 OD450
OD450 at 13.33 nM [1]: 1.03 OD450
OD450 at 66.66 nM [1]: 1.04 OD450
EC50 [2]: 0.558 nM
Max MFI [2]: 4740 MFI

B9: hAb005LH1L1a (antibody, human IgG1, V domains shown)
VH: B2 VH
VL: B2 VL with N33D, R34G
notes: Humanized F3.54.12; VH H1 + VL L1a; expressed as human IgG1
OD450 at 0.0008 nM [1]: 0.053 OD450
OD450 at 0.004 nM [1]: 0.05 OD450
OD450 at 0.02 nM [1]: 0.051 OD450
OD450 at 0.11 nM [1]: 0.057 OD450
OD450 at 0.53 nM [1]: 0.056 OD450
OD450 at 2.67 nM [1]: 0.113 OD450
OD450 at 13.33 nM [1]: 0.208 OD450
OD450 at 66.66 nM [1]: 0.558 OD450
EC50 [2]: 315 nM
Max MFI [2]: 122 MFI

Next, values leading:

OD450 at 0.0008 nM [1]: 0.097 OD450
OD450 at 0.004 nM [1]: 0.133 OD450
OD450 at 0.02 nM [1]: 0.323 OD450
OD450 at 0.11 nM [1]: 0.959 OD450
OD450 at 0.53 nM [1]: 1.78 OD450
OD450 at 2.67 nM [1]: 2.11 OD450
OD450 at 13.33 nM [1]: 2.16 OD450
OD450 at 66.66 nM [1]: 2.19 OD450
EC50 [2]: 6.98 nM
Max MFI [2]: 6760 MFI
B1: hAb007LH3L1 (antibody, human IgG1, V domains shown)
VH: EVQLVQSGAEVKKPGSSVKVSCKASGYTFTDYEMHWVRQAPGQGLEWMGTIDPETGNTAYNQKFKGRVTLTADKSTSTAYMELSSLRSEDTAVYYCTRPYSLTYWGQGTLVTVSS
VL: B2 VL with L29F, R34G, N35D, H39Q, S94F, N96G, T97S, P101Y, G105Q, V109L
notes: Humanized F3.81.19; VH H3 + VL L1; expressed as human IgG1

OD450 at 0.0008 nM [1]: 0.099 OD450
OD450 at 0.004 nM [1]: 0.133 OD450
OD450 at 0.02 nM [1]: 0.297 OD450
OD450 at 0.11 nM [1]: 0.924 OD450
OD450 at 0.53 nM [1]: 1.84 OD450
OD450 at 2.67 nM [1]: 2.2 OD450
OD450 at 13.33 nM [1]: 2.33 OD450
OD450 at 66.66 nM [1]: 2.25 OD450
EC50 [2]: 6.16 nM
Max MFI [2]: 6040 MFI
B3: hAb007LH2L1b (antibody, human IgG1, V domains shown)
VH: B1 VH with L70I
VL: B2 VL with L29F, N35D, H39Q, S94F, N96G, T97S, P101Y, G105Q, V109L
notes: Humanized F3.81.19; VH H2 + VL L1b; expressed as human IgG1

OD450 at 0.0008 nM [1]: 0.088 OD450
OD450 at 0.004 nM [1]: 0.112 OD450
OD450 at 0.02 nM [1]: 0.225 OD450
OD450 at 0.11 nM [1]: 0.784 OD450
OD450 at 0.53 nM [1]: 1.8 OD450
OD450 at 2.67 nM [1]: 2.21 OD450
OD450 at 13.33 nM [1]: 2.25 OD450
OD450 at 66.66 nM [1]: 2.29 OD450
EC50 [2]: 7.33 nM
Max MFI [2]: 6240 MFI
B4: hAb007LH3L1b (antibody, human IgG1, V domains shown)
VH: B1 VH
VL: B2 VL with L29F, N35D, H39Q, S94F, N96G, T97S, P101Y, G105Q, V109L
notes: Humanized F3.81.19; VH H3 + VL L1b; expressed as human IgG1

OD450 at 0.0004 nM [1]: 0.049 OD450
OD450 at 0.002 nM [1]: 0.05 OD450
OD450 at 0.011 nM [1]: 0.058 OD450
OD450 at 0.056 nM [1]: 0.104 OD450
OD450 at 0.28 nM [1]: 0.248 OD450
OD450 at 1.39 nM [1]: 0.732 OD450
OD450 at 6.94 nM [1]: 1.17 OD450
OD450 at 34.72 nM [1]: 0.921 OD450
EC50 [2]: 10.4 nM
Max MFI [2]: 15000 MFI
B8: hAb007LH1L1e (antibody, human IgG1, V domains shown)
VH: B1 VH with T30S, L70I
VL: B2 VL with L29F, R34V, N35D, H39Q, S94F, N96G, T97S, P101Y, G105Q, V109L
notes: Humanized F3.81.19; VH H1 + VL L1e; expressed as human IgG1

From patent US20260116991A1 (HAINAN SIMCERE ZAIMING PHARMACEUTICAL, published 2026)
